This is an account of results in publication PMC4751538, “Structural Insights into the Tetrameric State of Aspartate-β-semialdehyde Dehydrogenases from Fungal Species” (Scientific Reports, 2016).

Data set [1] has as its target Aspartate-β-semialdehyde dehydrogenase from Aspergillus fumigatus (A. fumigatus). Put plainly: native gel or EMSA; native PAGE (3-12%), migration against molecular weight standards. For orientation: A gel shift assay detects complexes by their altered migration in electrophoresis.
In data set [2] the target is Aspartate-β-semialdehyde dehydrogenase from Streptococcus pneumoniae (Streptococcus pneumoniae). Put plainly: AUC; sedimentation velocity, 4 °C, 20 mM Tris pH 8.0, 100 mM NaCl, all proteins at OD280 = 0.85, 50,000 rpm, Sedfit.
Data set [3] has the same target. Put plainly: native gel or EMSA; native PAGE (3-12%), migration against molecular weight standards.
Data set [4] has as its target Aspartate-β-semialdehyde dehydrogenase from Cryptococcus neoformans (C. neoformans). The description is as above.
In data set [5] the target is Aspartate-β-semialdehyde dehydrogenase from Vibrio cholerae (V. cholerae). The data set is described as above.
The target of data set [6] is T1, trASADH (T. rubrum aspartate-β-semialdehyde dehydrogenase) (Trichophyton rubrum, UniProt A0A080WMA9).
T1 construct: gene TERG_03598; full length 362 aa, N-terminal 6xHis tag (pET-28a), E. coli; homotetramer
T1 sequence (A0A080WMA9 1-362): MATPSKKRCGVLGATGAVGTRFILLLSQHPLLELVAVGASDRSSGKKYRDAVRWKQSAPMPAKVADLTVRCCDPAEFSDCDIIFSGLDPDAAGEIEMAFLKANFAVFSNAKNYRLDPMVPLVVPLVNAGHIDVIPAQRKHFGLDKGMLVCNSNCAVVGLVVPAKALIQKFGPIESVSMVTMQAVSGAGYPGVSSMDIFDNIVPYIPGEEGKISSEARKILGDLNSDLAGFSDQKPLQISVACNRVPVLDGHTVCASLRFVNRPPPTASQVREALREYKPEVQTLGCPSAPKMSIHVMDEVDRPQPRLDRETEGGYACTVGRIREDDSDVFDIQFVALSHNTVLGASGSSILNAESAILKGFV
As to the kind of experiment: isothermal titration calorimetry. Format: binding. (ITC needs no label: the signal is the heat of the interaction.)

Data set [7] concerns the molecule itself. Put plainly: native gel or EMSA; native PAGE (3-12%), migration against molecular weight standards.
Data set [8] concerns the molecule itself. As to the kind of experiment: cell-based or functional assay.
Data set [9] concerns the molecule itself. As to the kind of experiment: SEC; Superose 6 PC3.2/30, 20 mM Tris-HCl pH 8.0, 100 mM NaCl, ~3 mg/ml, calibrated with mass standards (also the final Superdex 200 purification step). (In gel filtration, larger molecules generally elute earlier.)
Data set [10] deals with the molecule itself. As to the kind of experiment: AUC; sedimentation velocity, 4 °C, 20 mM Tris pH 8.0, 100 mM NaCl, all proteins at OD280 = 0.85, 50,000 rpm, Sedfit.

Positions count from the first letter of the chain named. In names and notes the source's numbering stands.

In general, stoichiometry N refers to a count of units in the complex or per binding partner. Consider “Aspartate-β-semialdehyde dehydrogenase from Aspergillus fumigatus (enzyme)”, for which the stoichiometry N in [1] was found to be 4.

As to “Aspartate-β-semialdehyde dehydrogenase from Streptococcus pneumoniae (enzyme)”, the stoichiometry N in [2] and in data set [3] was 2 in each case.

For “Aspartate-β-semialdehyde dehydrogenase from Cryptococcus neoformans (enzyme)”, the stoichiometry N in [4] was 4.

As for “Aspartate-β-semialdehyde dehydrogenase from Vibrio cholerae (enzyme)”, the stoichiometry N in data set [5] was 2.

As usually defined, the Kd is the concentration at which binding is half-saturated. The low end stands for tighter binding, the high end for weaker binding. In data set [6], `NC(=O)c1ccc[n+]([C@@H]2O[C@H](COP(=O)(O)OP(=O)(O)OC[C@H]3O[C@@H](n4cnc5c(N)ncnc54)[C@H](OP(=O)(O)O)[C@@H]3O)[C@@H](O)[C@H]2O)c1` [NADP] yielded a Kd of 76.9 µM.

B1: Aspartate-β-semialdehyde dehydrogenase from Candida albicans (enzyme)
chain: MSVKKAGVLGATGSVGQRFILLLSKHPEFEIHALGASSRSAGKKYKDAASWKQTETLPETEQDIVVQECKPEGNFLECDVVFSGLDADVAGDIEKSFVEAGLAVVSNAKNYRREKDVPLVVPIVNPEHIDVVENKVKQAVSKGGKKPGFIICISNCSTAGLVAPLKPLVEKFGPIDALTTTTLQAISGAGFSPGVSGMDILDNIVPYISGEEDKLEWETKKILGGVNAEGTEFVPIPESEMKVSAQCNRVPVIDGHTECISLRFANRPAPSVEDVKQCLREYECAASKLGCHSAPKQTIHVLDQPDRPQPRLDRDRDSGYGVSVGRIREDSLLDFKMVVLSHNTIIGAAGAGILIAEILKAKNII
notes: Aspartate-β-semialdehyde dehydrogenase of Candida albicans (fungal ASADH); The construct used for native PAGE is not described; also called caASADH; C. albicans ASADH
For B1, in data set [7], the “stoichiometry N” value is 4.

B2: trASADH with mutation D196A (enzyme)
chain: SKKRCGVLGATGAVGTRFILLLSQHPLLELVAVGASDRSSGKKYRDAVRWKQSAPMPAKVADLTVRCCDPAEFSDCDIIFSGLDPDAAGEIEMAFLKANFAVFSNAKNYRLDPMVPLVVPLVNAGHIDVIPAQRKHFGLDKGMLVCNSNCAVVGLVVPAKALIQKFGPIESVSMVTMQAVSGAGYPGVSSMAIFDNIVPYIPGEEGKISSEARKILGDLNSDLAGFSDQKPLQISVACNRVPVLDGHTVCASLRFVNRPPPTASQVREALREYKPEVQTLGCPSAPKMSIHVMDEVDRPQPRLDRETEGGYACTVGRIREDDSDVFDIQFVALSHNTVLGASGSSILNAESAILKGFV
notes: Aspartate-β-semialdehyde dehydrogenase of Trichophyton rubrum BMU01672 (362 aa) with the point mutation D196A; parent as m1; source: E. coli B834(DE3) or Rosetta(DE3), purified (Ni-NTA, Hitrap Q, Superdex 200)
Consider B2, for which the “enzymatic activity (kcat) at 25 °C, tetrameric single mutant” value (shortened to “enzymatic activity (kcat) at 25 °C”) in data set [8] stood at 15.9 s⁻¹. For the same molecule, in data set [9], the “stoichiometry N” value worked out at 4.

B3: trASADH with mutation F198A (enzyme)
chain: B2 chain with A192D, F194A
notes: Aspartate-β-semialdehyde dehydrogenase of Trichophyton rubrum BMU01672 (362 aa) with the point mutation F198A; parent as m1; also called trASADH-F198A; Mutant F198A; source: E. coli B834(DE3) or Rosetta(DE3), purified (Ni-NTA, Hitrap Q, Superdex 200)
Turning to B3, in data set [10], the “stoichiometry N” value came out at 4. In [8], the “enzymatic activity (kcat) at 25 °C” value turned out to be 15.7 s⁻¹.

B4: trASADH with mutation R309A (enzyme)
chain: B2 chain with A192D, R305A
notes: Aspartate-β-semialdehyde dehydrogenase of Trichophyton rubrum BMU01672 (362 aa) with the point mutation R309A; parent as m1; source: E. coli B834(DE3) or Rosetta(DE3), purified (Ni-NTA, Hitrap Q, Superdex 200)
B4: in data set [8], the “enzymatic activity (kcat) at 25 °C” value is 12.9 s⁻¹. The “stoichiometry N” value in data set [9] was 4.

B5: Aspartate-β-semialdehyde dehydrogenase from Trichophyton rubrum, wild type (enzyme)
chain: B2 chain with A192D
notes: Aspartate-β-semialdehyde dehydrogenase (ASADH) of Trichophyton rubrum BMU01672, wild type, 362 aa as printed; theoretical monomer 38.7 kDa; The apo crystal (4ZHS) was a selenomethionine derivative; Cloned in pET-28a; also called trASADH; ASADH; source: E. coli B834(DE3) or Rosetta(DE3), purified (Ni-NTA, Hitrap Q, Superdex 200)
For the molecule B5, the “stoichiometry N” value in [10] turned out to be 4.

B6: trASADH with the triple mutation R309A-D196A-F198A (enzyme)
chain: B2 chain with F194A, R305A
notes: Aspartate-β-semialdehyde dehydrogenase of Trichophyton rubrum BMU01672 (362 aa) with R309A, D196A and F198A; parent as m1; also called trASADH R309A-D196A-F198A; dimeric triple mutant; source: E. coli B834(DE3) or Rosetta(DE3), purified (Ni-NTA, Hitrap Q, Superdex 200)
With B6, the “stoichiometry N” value in data set [10] was found to be 2.

B7: trASADH with mutation Y189A (enzyme)
chain: B2 chain with Y185A, A192D
notes: Aspartate-β-semialdehyde dehydrogenase of Trichophyton rubrum BMU01672 (362 aa) with the point mutation Y189A; parent as m1; also called trASADH-Y189A; source: E. coli B834(DE3) or Rosetta(DE3), purified (Ni-NTA, Hitrap Q, Superdex 200)
In the case of B7, the “stoichiometry N” value in data set [10] turned out to be 4.
